Values of other authors, collected in article PMC5838028.

Biological target: glypican-3 (Homo sapiens) (UniProt P51654)
Sequence (P51654 359-554): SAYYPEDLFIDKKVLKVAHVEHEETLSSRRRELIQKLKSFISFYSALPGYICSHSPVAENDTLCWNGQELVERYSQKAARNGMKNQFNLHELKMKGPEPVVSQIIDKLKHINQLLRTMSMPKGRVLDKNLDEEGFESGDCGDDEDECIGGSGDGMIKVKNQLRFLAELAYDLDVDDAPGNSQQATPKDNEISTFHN

Kd: 0.673 nM
Substance: codrituzumab
